Target: 161P2F10b (UniProt O14638)
Assay: saturation binding ELISA; relative affinity

Kd: 0.28 nM
Substance: 97A6(CD203c)
